# Results: paper PMC7293217, “TECPR1 promotes aggrephagy by direct recruitment of LC3C autophagosomes to lysosomes” (Nature Communications, 2020)
# B1: Alexa488-labeled LC3C conjugated to SUVs (natural protein, human, UniProt Q9BXW4 1-126, looked up)
# chain: MPPPQKIPSVRPFKQRKSLAIRQEEVAGIRAKFPNKIPVVVERYPRETFLPPLDKTKFLVPQELTMTQFLSIIRSRMVLRATEAFYLLVNNKSLVSMSATMAEIYRDYKDEDGFVYMTYASQETFG
# modifications: Alexa Fluor 488 C5 maleimide on the introduced N-terminal cysteine; conjugated to SUVs
# Molecular target: T1, TECPR1 (purified, on GUVs) (human, UniProt Q7Z6L1 1-1165)
# T1 construct: TECPR1, human, full-length cDNA of isoform 1, cloned into pCoofy29; TECPR1 could be labeled on native cysteines (Alexa Fluor 488 or CF405M); also called recombinant TECPR1; source: High Five insect cells, purified (Ni-NTA, PreScission, Superdex 200); not shown: His6, N-terminal, cleaved; MBP, N-terminal, cleaved
# T1 sequence (looked up): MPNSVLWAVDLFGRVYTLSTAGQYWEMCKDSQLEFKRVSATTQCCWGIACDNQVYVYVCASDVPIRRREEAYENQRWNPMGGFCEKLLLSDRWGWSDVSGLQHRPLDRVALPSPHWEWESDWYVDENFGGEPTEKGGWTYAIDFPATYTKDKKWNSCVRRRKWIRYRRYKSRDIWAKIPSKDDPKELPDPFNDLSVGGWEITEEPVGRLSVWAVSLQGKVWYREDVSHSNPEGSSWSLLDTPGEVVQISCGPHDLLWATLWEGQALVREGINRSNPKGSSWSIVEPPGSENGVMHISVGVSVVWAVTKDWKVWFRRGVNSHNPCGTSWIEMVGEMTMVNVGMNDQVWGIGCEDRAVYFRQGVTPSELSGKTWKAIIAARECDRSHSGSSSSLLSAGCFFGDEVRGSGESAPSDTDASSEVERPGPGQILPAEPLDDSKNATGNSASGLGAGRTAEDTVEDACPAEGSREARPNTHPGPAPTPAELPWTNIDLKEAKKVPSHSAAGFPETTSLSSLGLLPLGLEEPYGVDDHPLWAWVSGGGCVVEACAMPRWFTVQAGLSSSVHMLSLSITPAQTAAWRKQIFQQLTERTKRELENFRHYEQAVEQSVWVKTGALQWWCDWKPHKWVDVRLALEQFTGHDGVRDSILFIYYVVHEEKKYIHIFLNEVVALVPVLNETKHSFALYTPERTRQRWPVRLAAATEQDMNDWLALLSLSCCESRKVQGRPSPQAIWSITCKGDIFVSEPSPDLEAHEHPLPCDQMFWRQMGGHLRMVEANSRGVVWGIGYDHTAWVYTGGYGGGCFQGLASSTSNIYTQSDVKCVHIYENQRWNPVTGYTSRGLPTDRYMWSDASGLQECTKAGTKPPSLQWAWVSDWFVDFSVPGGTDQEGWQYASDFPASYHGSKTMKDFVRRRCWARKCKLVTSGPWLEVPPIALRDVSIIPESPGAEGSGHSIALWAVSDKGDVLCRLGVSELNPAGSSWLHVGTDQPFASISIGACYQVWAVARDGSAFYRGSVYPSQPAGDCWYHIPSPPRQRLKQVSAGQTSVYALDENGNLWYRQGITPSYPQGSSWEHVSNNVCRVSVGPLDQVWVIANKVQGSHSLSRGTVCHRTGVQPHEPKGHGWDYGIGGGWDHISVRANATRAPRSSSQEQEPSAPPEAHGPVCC
# Experiment: recruitment of SUVs to GUVs seen by fluorescence microscopy; reconstitution with purified proteins: Alexa488-LC3C conjugated to SUVs coincubated with GUVs decorated with TECPR1; GUVs without TECPR1 as control
# Details: both partners purified
binder,measurement,value
B1,binding result,binds
